{"source": "patent US20060217299", "proteins": {"B1": {"name": "caspase-1 (Calbiochem, Co., Ltd.) (protein)", "chain": "NPAMPTSSGSEGNVKLCSLEEAQRIWKQKSAEIYPIMDKSSRTRLALIICNEEFDSIPRRTGAEVDITGMTMLLQNLGYSVDVKKNLTASDMTTELEAFAHRPEHKTSDSTFLVFMSHGIREGICGKKHSEQVPDILQLNAIFNMLNTKNCPSLKDKPKVIIIQACRGDSPGVVWFKDSVGVSGNLSLPTTEEFEDDAIKKAHIEKDFIAFCSSTPDNVSWRHPTMGSVFIGRLIEHMQEYACSCDVEEIFRKVRFSFEQPDGRAQMPTTERVTLTRCFYLFPGH"}}, "key": {"[1]": {"target": "GST-XIP (D25A, D70A, D80A)"}, "[2]": {"target": "GST-XIP (D39A) [GST: P08515]"}}, "data": [{"protein": "B1", "values": [{"measurement": "caspase-1 protease assay (SDS-PAGE, western blotting with anti-GST antibody)", "setting": "GST [GST: P08515]", "result": "GST was not cleaved by caspase-1"}, {"measurement": "caspase-1 protease assay (SDS-PAGE, western blotting with anti-GST antibody)", "setting": "GST-XIP (D25A)", "result": "fragment located at the higher molecular weight side was detected; fragment located at the lower molecular weight side not detected when using GST-XIP (D25A)"}, {"measurement": "caspase-1 protease assay (SDS-PAGE, western blotting with anti-GST antibody)", "setting": "GST-XIP (D25A, D70A)", "result": "When using GST-XIP (D25A, D70A) as a substrate, a new fragment other than the aforementioned fragments was detected"}, {"measurement": "caspase-1 protease assay (SDS-PAGE, western blotting with anti-GST antibody)", "setting": "[1]", "result": "This fragment was not detected when using GST-XIP (D25A, D70A, D80A) as a substrate"}, {"measurement": "caspase-1 protease assay (SDS-PAGE, western blotting with anti-GST antibody)", "setting": "[2]", "result": "fragment located at the higher molecular weight side was detected; fragment located at the lower molecular weight side was detected when using GST-XIP (D39A)"}, {"measurement": "caspase-1 protease assay (SDS-PAGE, western blotting with anti-GST antibody)", "setting": "GST-XIP (D58A)", "result": "fragment located at the higher molecular weight side was detected; fragment located at the lower molecular weight side was detected when using GST-XIP (D58A)"}, {"measurement": "caspase-1 protease assay (SDS-PAGE, western blotting with anti-GST antibody)", "setting": "GST-XIP (D70A)", "result": "fragment located at the higher molecular weight side not detected when using GST-XIP (D70A); fragment located at the lower molecular weight side was detected"}]}]}
